Assay results: the nanobody polyreactivity screen of Harvey et al. (2022)

Experiment: yeast display, Sf9 membrane polyspecificity reagent, FACS + sequencing; frameworks hold sequencing errors
In short: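 Nanobodies came from a synthetic yeast display library in Saccharomyces cerevisiae BJ5465, induced with galactose for 36–48 hours and stained for 1 hour at 4 °C with 10% biotinylated, detergent-solubilized Sf9 membrane reagent. Cells were enriched on streptavidin microbeads and then FACS-sorted, with low and high (top ~1%) gates set on anti-HA fluorescence for expression and streptavidin fluorescence for reagent binding. Each polyreactivity label reflects the gate a clone came from. Genes were amplified by colony PCR, sequenced by MiSeq 2 × 250 and filtered by CDR length.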

Sequence	polyreactivity (PSR sort gate)
QVQLVESGGGLVQAGGSLRLSCAASGSISWVYAMGWYRQAPGKERELVAAISNSGGSTYYADSVKGRFTISRDNAKNTVYLQMNSLKPEDTAVYYCAADGYFYYSAFWASPYEYWGQGTQVTVSS	high polyreactivity
QVQLVESGGGLVQAGGSLRLSCAASGSISYYNAMGWYRQAPGKERELVAAITYSAGGTYYADSVKGRFTISRDNAKNTVYLQMNSLKPEDTAVYYCAADAYKHVAYGGVYWYYYWGLGTQVTVSS	high polyreactivity
QVQLVESGGGLVQAGGSLRLSCAASGSISYYNAMGWYRQAPGKERELVATITDSGGSTYYADSVKGRFTISRDNAKNTVYLQMNSLKPEDTAVYYWAVDYSEWYSIYEYWGQGTQVTVSS	low polyreactivity
QVQLVESGGGLVQAGGSLRLSCAASGSIVAGNAMGWYIQAPGKEREMVAAITWRSGRTYYADSVKGRFTISRDNAKNTVNLQMNSLKPVDTAVYYCARGRYGYTAPVRRWYFRYDYWGQGTQVTVSS	high polyreactivity
QVQLVESGGGLVQAGGSLRLSCAASGSIVDNRGWYRQAPGKERELVAAISSSGDSTYYADSVKGRFTISRDNAKNTVYLQMNSLKPEDTAVYYCAADFYYYKKQYDYWGQGTQVTVSS	low polyreactivity
QVQLVESGGGLVQAGGSLRLSCAASGSIVGYAMGWYRQAPGKERELVAAISSGGSTNYADSVKGRFTISRDNAKNTVYLQMNSLKPEDTAVYYCAKSWRWRANLRGYYWGQGTQVTVSS	high polyreactivity
QVQLVESGGGLVQAGGSLRLSCAASGSIVRSYAMGWYRQAPGKERELVASITDGTITNYADSVKGRFTISRDNAKNTVYLQMISLKPDDTAVYYCAAGTLAHAYVVRPIEMDYWGQGTQVTVSS	low polyreactivity
QVQLVESGGGLVQAGGSLRLSCAASGSIVSAYVMGWYRQAPGKERELVAAITRSGGSTYYADSVKGRFTISRDNAKNTVYLQMNSLKPEDTAVYYCAADRRWFAYWFDYWGQGTQVTVSS	low polyreactivity
QVQLVESGGGLVQAGGSLRLSCAASGSIVVPYTMGWYRQAPGKEMELVAAINSSDDSTFYADSVKGRFTISRENAKNTVYIKMNSLKPEDTAVYYCNATGYARWYTGDYWGQGTQVTVSS	low polyreactivity
QVQLVESGGGLVQAGGSLRLSCAASGSIVYYNAMGWYRQAPGKERELVASISNGGSTDYADSVKGRFTISRDNAKNTVYLQMNSLKPEDTAVYSCNAKQSYRSEYDYWGQGTQVTVSS	low polyreactivity
QVQLVESGGGLVQAGGSLRLSCAASGSIYGFYAKGWYRQAPAKESELVAAIDSGDSSNYADSVKGRFTISRDNAKNTVYLQMKSLIPEDTAVYYWNAEAWWYFCFDYWGQGTQVTVSS	low polyreactivity
QVQLVESGGGLVQAGGSLRLSCAASGSIYGRYVMGWYRQSPGKERELVATISSGGSTYYADSVKGRFTISRDNAKNTVYLQMNSLKPEDTAVYYCAASYSRFVDWIGDPGYDYWGQGTQVTVSS	low polyreactivity
QVQLVESGGGLVQAGGSLRLSCAASGSIYGYYVMGWNRQAPGKERELVAAISRSGGSTYYADSVKGRFTISRDNAKNTFYLQMNSLKPEDTGVYYCAASFAVRYPRLDYWGQGTQVTVSS	high polyreactivity
QVQLVESGGGLVQAGGSLRLSCAASGSIYLYNAMGWYRQAPGKERELVAVINGRGGTYYADSVKGRFTISRDNAKNNVYLQMNSLKPEDTAVYYCATGYAPSAWYDSVRFEDRDSWGQGTQVTVSS	low polyreactivity
QVQLVESGGGLVQAGGSLRLSCAASGSIYRNNAMGWYRQAPGKERELVAVISRRAGNTYYAVSVKGRFTISRDNAKNTVYLQMNSLKPEDTAVYYCAADYSKSSIRGDYWGQGTQVTVSS	low polyreactivity
QVQLVESGGGLVQAGGSLRLSCAASGSIYRYAMGWYRQAPGKERELVASISRRGGSTYYADSVKGRFTISRDNAKNTVYLQMNSLKPEDTAVYSCNAYGYSFGYDYWGQGTQVTVSS	high polyreactivity
QVQLVESGGGLVQAGGSLRLSCAASGSIYSYTMGWYRQAPGKEKELVAAITYSGDSTYYADSVKGRFTISRDNAKNTVYLQMNSLKPDDTAVYYCAKSGTLSEYDYWGQGTQVTVSS	low polyreactivity
QVQLVESGGGLVQAGGSLRLSCAASGSIYSYTMGWYRQAPGKEREFVAAITYSGDSTYYADSVKGRFTISRDNEKNTVYLQMNSLTPEDTAVYDCAAAGGRGSYYRLDYWGQGTQVTVSS	low polyreactivity
QVQLVESGGGLVQAGGSLRLSCAASGSIYTPNVMGWYRQAPGKERELVAAISQSGGSTFYADSVKGRFTISRDNAKNTVYLQMNSLKPEDTAVYYCATEYYGPVYDLDYDYWGQGTQVTVSS	low polyreactivity
QVQLVESGGGLVQAGGSLRLSCAASGSIYYGYAMGWYRQAPGKERELVAAISSSGGSTYYADSVKGRFTISRDNAKNTVYLQMNSLKPEDTAVYYCAATRRKAYLYPSDYWGQGTQVTVSS	high polyreactivity
QVQLVESGGGLVQAGGSLRLSCAASGSIYYHNAMGWYRQAPGKERELVAAITGSGGSTYYADSVKGRFTISRDNAKNTVYLQMNSLKPEDTAVYYCAADGYTKWWISWGYDYWGQGTQVTVSS	low polyreactivity
QVQLVESGGGLVQAGGSLRLSCAASGSIYYNAMGWYRQAPGKERELVASISTGDSTDYADSVKGRFTISRDNAKNTVYLQMNSLKPEDTAVYYCAAVTRLGYWDDYWGQGTQVTVSS	low polyreactivity

Sequence	polyreactivity (PSR sort gate)
QVQLVESGGGLVQAGGSLRLSCAASGSIYYYAMGWYRQAPGKERELVAVITSRGGSTNYADSVKGRFTISRDNAKNTVYLQMNSLKPQDTAVYYCNADYYRYYSITYGGDYWGQGTQVTVSS	high polyreactivity
QVQLVESGGGLVQAGGSLRLSCAASGSLFDHYAMGWYRQEPGTERELVARISWSGGSTYYADSVKGRFTISRDNAKNTVYLQMNRLKPEDTAVYYCARAGRSWDTLYKYYLEHDYWGQGTQVTVSS	low polyreactivity
QVQLVESGGGLVQAGGSLRLSCAASGSLYFAYAMGWYRQAPGKEREFVAAISASGGSTSYADSVKGRFTISRDNAKNTVYLQMNSLKPEDTAVYYCATEHRVTTYDYWGQGTQVTVSS	low polyreactivity
QVQLVESGGGLVQAGGSLRLSCAASGSMFEGYAMGRYLQAPGKVRELVAAMTWSSGSTYYADSVKGRFTISRDNAKNTVYLQMNSLKPEETAVYSCAVDGGDFSSYGYWGQGTQVTVSS	low polyreactivity
QVQLVESGGGLVQAGGSLRLSCAASGSMFKNNAMGWYRQAPGKARELVAAISRSGGSTYYADSVKGRFTISRDNAKNTVYLPMNSLKPEDTAVYYCARDVDTHYPYAYDYWGQGTQVTVSS	high polyreactivity
QVQLVESGGGLVQAGGSLRLSCAASGSNFAINAMGWYRQAPGKERELVAAITRTASTYADSVKGRFTISRDNAKNTVYLQMNSLKPEDTAVYYCNADFAYRYYYWGQGTQVTVSS	low polyreactivity
QVQLVESGGGLVQAGGSLRLSCAASGSNFARYAMGWYRQAPGKERELVAAINSTVSTNYADSVNGRFTISRDNPKNTVYLQMNSLKPEDTAVYYCAVDIVRGGRDSWGQGTQVTVSS	low polyreactivity
QVQLVESGGGLVQAGGSLRLSCAASGSNFDDNAMGWYRQAPGKERELVAAINSTDITNYADSVKGRFTISRDNAKNTVYLQMTSLKPEDTAVYYCNVDDWGQGTQVTVSS	low polyreactivity
QVQLVESGGGLVQAGGSLRLSCAASGSNFDDYGMGWYRQAPGKEREFVATITFGGGTYADSVKGRFTISRDNAKNTVYLQMTSLKPEDTAVYYCAKDWWTYRSSRPSDGTPARDDYWGQGTQVTVSS	low polyreactivity
QVQLVESGGGLVQAGGSLRLSCAASGSNFDYYAMGWYRQAPGKERELVAAIRVSGGSTYYADSVKGRFTISRDNAKNTVYLQMNSLKPEDTAVCYCASSYYDFNYEYYYWGQGTQVTVSS	high polyreactivity
QVQLVESGGGLVQAGGSLRLSCAASGSNFGANAMGWYRQAPGKEREFVAAISGSGTTTYYADSVKGRFTISRDNAKNTVYLQMNSLKPEDTAVYYCAKTRKAHWLGYWGQGTQVTVSS	low polyreactivity
QVQLVESGGGLVQAGGSLRLSCAASGSNFGWYTMGWYRQAPGKERELVAAITSRGTRTSYADSVKGRFTISRDYAKNTVYLQMNSLKPEDTAVYYCAARVFRGLGEYYWGQGTQVTVSS	high polyreactivity
QVQLVESGGGLVQAGGSLRLSCAASGSNFHLYAMGWYRQAPGKERELVADIDLSGGSTYYADSVKGRFTISRDNAKNTVYLQMNSLKPEDTAVYYCGADHVSSLGFDYWGQGTEVTVSS	low polyreactivity
QVQLVESGGGLVQAGGSLRLSCAASGSNFNPYDLGWYRQAPGKERELVAAIDWSGGSTYYADSVKGRFTISRDNAKNTVYLQMNSLKPEDTAVYYCNAESYQDTLFGADNDYDYWGQGTLVTVSS	low polyreactivity
QVQLVESGGGLVQAGGSLRLSCAASGSNFPWNAKGWYRQAPGKERELVAGINESGGSTYYADSVKGRFTISRDYAKNTVYLQMNSLKPEDTAVYYCAADGYPSVGDDYWGQGTQVTVSS	low polyreactivity
QVQLVESGGGLVQAGGSLRLSCAASGSNFRTYPIGWYRQAPGKERELVAAISSNGGSTYYADSVKGRFTISRDNAKNTVYLQMNSLKPEDTAVYYCANDQTGYWYNRYGYWGQGTQVTVSS	low polyreactivity
QVQLVESGGGLVQAGGSLRLSCAASGSNFRYNAIGWYRQAPGKERELVAAISWSGGSTYYADSVKGRFTISRDNAKNTVYLQMNSLKPEDTAVYYCATRYYGIVPGRRYGYWGQGTQVTVSS	low polyreactivity
QVQLVESGGGLVQAGGSLRLSCAASGSNFSDNAMGWYRQAPRKERELVAAITSGGSTYYADSVKGRFTISRDKAKNTVYLQMNSLKPEDSAVYYCAADYWGQGTQVTVSS	low polyreactivity
QVQLVESGGGLVQAGGSLRLSCAASGSNFSFYAMGWYRQAPGKERELVAAISWSGGTTYYADSVKGRFTISRDNAKNTVYLQMNSLKPEDTAVYYCAASEYDGYGGYYWGQGSQVTVSS	low polyreactivity
QVQLVESGGGLVQAGGSLRLSCAASGSNFTPYAMGWYRQAPGKERELVAAISGSGGSTRYADSVKARYTISRDNAKNTVYLQMNSLKPEDTAVYYCAADRYTYIWYHIYDYWGQGTQVTVSS	low polyreactivity
QVQLVESGGGLVQAGGSLRLSCAASGSNFVGNAMGWYRQAPGKERELFAAISSGGSTYYADSVKGRFTISRDNAKNTVYLQLNSLKPEDTAVYYCAAYYVRRYSSRPKDDYWGQGTQVTVSS	low polyreactivity
